One block for each sequence: values may come before it.
Legend:
HLA-A*23:01 = experiment: IEDB peptide-MHC binding, purified MHC/competitive/radioactivity; filed as Kd, often an IC50 or EC50 that approximates it; ≥ and ≤ were set here for values at or beyond the usual limits of such assays
HLA-A*24:02 = experiment: as above
HLA-A*26:01 = experiment: as above
HLA-A*01:01 = experiment: as above
HLA-A*29:02 = experiment: as above
HLA-A*30:02 = experiment: as above
HLA-B*57:01 = experiment: IEDB peptide-MHC binding, purified MHC/direct/fluorescence; filed as Kd, often an IC50 or EC50 that approximates it; ≥ and ≤ were set here for values at or beyond the usual limits of such assays
HLA-B*15:01 [1] = experiment: IEDB peptide-MHC binding, purified MHC/competitive/radioactivity; filed as Kd, often an IC50 or EC50 that approximates it; ≥ and ≤ were set here for values at or beyond the usual limits of such assays
HLA-B*46:01 [2] = experiment: IEDB peptide-MHC binding, purified MHC/direct/fluorescence; filed as Kd, often an IC50 or EC50 that approximates it; ≥ and ≤ were set here for values at or beyond the usual limits of such assays; conditions: source organism: West Nile virus
HLA-B*44:02 = experiment: IEDB peptide-MHC binding, purified MHC/competitive/radioactivity; filed as Kd, often an IC50 or EC50 that approximates it; ≥ and ≤ were set here for values at or beyond the usual limits of such assays; conditions: source organism: Dengue virus 4 Philippines/H241/1956
HLA-B*53:01 = experiment: as above
HLA-B*58:01 = experiment: IEDB peptide-MHC binding, purified MHC/direct/fluorescence; filed as Kd, often an IC50 or EC50 that approximates it; ≥ and ≤ were set here for values at or beyond the usual limits of such assays; conditions: source organism: Giardia lamblia ATCC 50803
HLA-B*40:01 = experiment: IEDB peptide-MHC binding, purified MHC/competitive/radioactivity; filed as Kd, often an IC50 or EC50 that approximates it; ≥ and ≤ were set here for values at or beyond the usual limits of such assays
HLA-B*44:03 = experiment: as above; conditions: source organism: Dengue virus 2 Jamaica/1409/1983
HLA-B*15:01 [3] = experiment: IEDB peptide-MHC binding, purified MHC/competitive/fluorescence; filed as Kd, often an IC50 or EC50 that approximates it; ≥ and ≤ were set here for values at or beyond the usual limits of such assays
HLA-A*30:01 = experiment: IEDB peptide-MHC binding, purified MHC/competitive/radioactivity; filed as Kd, often an IC50 or EC50 that approximates it; ≥ and ≤ were set here for values at or beyond the usual limits of such assays
HLA-A*02:01 = experiment: IEDB peptide-MHC binding, purified MHC/competitive/fluorescence; filed as Kd, often an IC50 or EC50 that approximates it; ≥ and ≤ were set here for values at or beyond the usual limits of such assays; conditions: source organism: Escherichia coli B171
HLA-A*11:01 = experiment: IEDB peptide-MHC binding, purified MHC/competitive/radioactivity; filed as Kd, often an IC50 or EC50 that approximates it; ≥ and ≤ were set here for values at or beyond the usual limits of such assays
HLA-A*03:01 = experiment: as above
HLA-A*68:01 = experiment: as above
HLA-A*33:01 = experiment: as above; conditions: source organism: Vaccinia virus WR
HLA-A*31:01 = experiment: as above; conditions: source organism: Vaccinia virus WR
HLA-B*46:01 [4] = experiment: IEDB peptide-MHC binding, purified MHC/competitive/fluorescence; filed as Kd, often an IC50 or EC50 that approximates it; ≥ and ≤ were set here for values at or beyond the usual limits of such assays; conditions: source organism: Francisella tularensis subsp. tularensis FSC198
[5] = source organism: Dengue virus 2 Jamaica/1409/1983
[6] = source organism: SARS coronavirus Tor2
[7] = source organism: Vaccinia virus WR
[8] = source organism: Vaccinia virus Copenhagen
[9] = source organism: Dengue virus 4 Philippines/H241/1956
[10] = source organism: Dengue virus 3 Martinique/1243/1999
[11] = source organism: Mammarenavirus machupoense

Sequence: IWYMWLGARF
Kd (HLA-A*23:01; [5]): 0.00827 µM
Kd (HLA-A*24:02; [5]): 6.14 nM

Sequence: KFADDLNQM
Kd (HLA-A*23:01; [6]): 0.659 µM
Kd (HLA-A*26:01; [6]): ≥ 44.3 µM
Kd (HLA-A*01:01; [6]): ≥ 78100 nM
Kd (HLA-A*24:02; [6]): 1500 nM
Kd (HLA-A*29:02; [6]): 124 nM
Kd (HLA-A*30:02; [6]): ≥ 30000 nM

Sequence: KIEELFYSY
Kd (HLA-A*23:01; [6]): ≥ 23.9 µM
Kd (HLA-A*26:01; [6]): ≥ 81.5 µM
Kd (HLA-A*01:01; [6]): 540 nM
Kd (HLA-A*24:02; [6]): ≥ 20700 nM
Kd (HLA-A*29:02; [6]): 39.2 nM
Kd (HLA-A*30:02; [6]): 11.6 nM

Sequence: KIMKVVNRW
Kd (HLA-B*57:01; source organism: Yellow fever virus): 131 nM

Sequence: KWDLIISDMY
Kd (HLA-A*23:01; [6]): ≥ 70 µM
Kd (HLA-A*26:01; [6]): ≥ 20.7 µM
Kd (HLA-A*01:01; [6]): ≥ 90900 nM
Kd (HLA-A*24:02; [6]): ≥ 39400 nM
Kd (HLA-A*29:02; [6]): 253 nM
Kd (HLA-A*30:02; [6]): 85.9 nM

Sequence: LAIPATEFF
Kd (HLA-B*15:01 [1]; [7]): 4.16 nM

Sequence: LAPFNFLVF
Kd (HLA-B*15:01 [1]; [7]): 135 nM

Sequence: LGFDVVAYF
Kd (HLA-B*15:01 [1]; [8]): 67.3 nM

Sequence: LGRANITHF
Kd (HLA-B*15:01 [1]; [7]): 6.73 nM

Sequence: LIIKLLLPG
Kd (HLA-B*15:01 [1]; [7]): 1120 nM

Sequence: LLLMRTTWAF
Kd (HLA-A*23:01; [9]): 0.694 µM
Kd (HLA-B*15:01 [1]; [9]): 1.24 nM
Kd (HLA-A*24:02; [9]): 292 nM

Sequence: LMNDPGAPW
Kd (HLA-B*46:01 [2]): 8.98 µM

Sequence: LQGRGPLKLF
Kd (HLA-B*15:01 [1]; [5]): 135 nM

Sequence: LQRKHGGML
Kd (HLA-B*15:01 [1]; [10]): 31.2 nM

Sequence: LSKNTFYLF
Kd (HLA-B*15:01 [1]; [7]): 14.2 nM

Sequence: LVRSTVSSI
Kd (HLA-B*15:01 [1]; [8]): 527 nM

Sequence: MTDKTPVHSW
Kd (HLA-B*44:02): 1410 nM
Kd (HLA-B*53:01; [9]): 891 nM

Sequence: NGVVTTSGTY
Kd (HLA-A*30:02; source organism: Dengue virus 1 Brazil/97-11/1997): 694 nM

Sequence: NPAQEDDQY
Kd (HLA-B*53:01; [9]): 746 nM

Sequence: NSKVQIGEY
Kd (HLA-A*23:01; [6]): ≥ 77.8 µM
Kd (HLA-A*26:01; [6]): 0.235 µM
Kd (HLA-A*01:01; [6]): ≥ 37700 nM
Kd (HLA-A*24:02; [6]): ≥ 34800 nM
Kd (HLA-A*29:02; [6]): 2270 nM
Kd (HLA-A*30:02; [6]): 57.2 nM

Sequence: RMAILGETAW
Kd (HLA-B*44:02): 1620 nM
Kd (HLA-B*15:01 [1]; [9]): 253 nM

Sequence: SARGLCNTW
Kd (HLA-B*58:01): 56.5 nM
Kd (HLA-B*57:01; source organism: Giardia lamblia ATCC 50803): 112 nM

Sequence: SEIPNLDII
Kd (HLA-B*40:01; [5]): 112 nM
Kd (HLA-B*44:03): 60.4 nM

Sequence: STLRTLKPY
Kd (HLA-B*15:01 [3]; source organism: Bacillus cereus G9241): 148 nM

Sequence: SYAQMWSLMY
Kd (HLA-A*30:02; source organism: Dengue virus 2 Peru/IQT2913/1996): ≥ 69700 nM

Sequence: TPRMCTREEF
Kd (HLA-B*53:01; [5]): 1300 nM

Sequence: TVDSSQGSEY
Kd (HLA-A*23:01; [6]): ≥ 70 µM
Kd (HLA-A*26:01; [6]): 1.07 µM
Kd (HLA-A*01:01; [6]): 15.7 nM
Kd (HLA-A*24:02; [6]): ≥ 70300 nM
Kd (HLA-A*29:02; [6]): 823 nM
Kd (HLA-A*30:02; [6]): 414 nM

Sequence: TVFIRFPHY
Kd (HLA-B*15:01 [1]; [7]): 123 nM
Kd (HLA-A*30:01; [7]): 1270 nM

Sequence: VDICFWSTI
Kd (HLA-A*23:01; [11]): 12.5 µM
Kd (HLA-A*26:01; [11]): ≥ 77.9 µM
Kd (HLA-A*01:01; [11]): 1760 nM
Kd (HLA-A*24:02; [11]): 1070 nM
Kd (HLA-A*29:02; [11]): ≥ 78900 nM
Kd (HLA-A*30:02; [11]): 5110 nM

Sequence: VEETNMITLL
Kd (HLA-B*40:01; source organism: Dengue virus 4 Dominica/814669/1981): 25 nM

Kd (HLA-B*15:01 [3]; source organism: Escherichia coli B171): 107 nM
Kd (HLA-A*02:01): 125 nM
Sequence: VQYRGLYQI

Sequence: VSENTGMGMY
Kd (HLA-A*11:01; [7]): 2360 nM
Kd (HLA-A*03:01; [7]): 1620 nM
Kd (HLA-A*68:01; [7]): ≥ 36900 nM
Kd (HLA-A*33:01): ≥ 24.2 µM
Kd (HLA-A*29:02; [7]): 34 nM
Kd (HLA-A*31:01): 13.4 µM

Sequence: VSYSTFCLG
Kd (HLA-B*15:01 [1]; [7]): 710 nM

Sequence: VTFKNPHAK
Kd (HLA-A*11:01; [5]): 137 nM
Kd (HLA-A*30:01; [5]): 278 nM
Kd (HLA-A*03:01; [5]): 9.59 nM
Kd (HLA-A*68:01; [5]): 133 nM

Sequence: VTYNCCDDDY
Kd (HLA-A*23:01; [6]): ≥ 70 µM
Kd (HLA-A*26:01; [6]): 18.5 µM
Kd (HLA-A*01:01; [6]): 32.6 nM
Kd (HLA-A*24:02; [6]): ≥ 70300 nM
Kd (HLA-A*29:02; [6]): 4490 nM
Kd (HLA-A*30:02; [6]): 80 nM

Sequence: VWLGFIAGL
Kd (HLA-A*23:01; [6]): 7.04 µM
Kd (HLA-A*26:01; [6]): ≥ 77.9 µM
Kd (HLA-A*01:01; [6]): ≥ 78100 nM
Kd (HLA-A*24:02; [6]): ≥ 46900 nM
Kd (HLA-A*29:02; [6]): 36.2 nM
Kd (HLA-A*30:02; [6]): 12 nM

Sequence: WENNIKLTV
Kd (HLA-B*40:01; [10]): 120 nM

Sequence: WMVHRQWFF
Kd (HLA-A*23:01; [10]): 0.125 µM
Kd (HLA-A*24:02; [10]): 835 nM

Sequence: YIGGTTQAF
Kd (HLA-B*46:01 [4]): 4.42 µM

— the Immune Epitope Database (IEDB)
